{"source": "the RNAGym collection of RNA variant scans (doi:10.7554/elife.80360)", "parents": {"B1": {"name": "HDV Ribozyme (parent)", "chain": "GGCCGGCAUGGUCCCAGCCUCCUCGCUGGCGCCGGCUGGGCAACAUUCCGAGGGGACCGUCCCCUCGGUAAUGGCGAAUGGGACCCA"}}, "data": [{"variants_of": "B1", "assay": "self-cleavage, relative activity (ratio to wild type); higher = more cleavage; co-transcriptional", "values": [{"variant": "GGCCGGCAUGGUCGCAGCCUCCUCGCUGGCGCCGGCUGGGGAACAUUCCGAGGGGACCGUCCCCUCGGUAAUGGCGAAUGGGACCCA", "note": "[C14G C41G]", "self-cleavage": 0.525}, {"variant": "GGCCGGCAUGGUCGCAGCCUCCUCGCUGGCGCCGGCUGGGUAACAUUCCGAGGGGACCGUCCCCUCGGUAAUGGCGAAUGGGACCCA", "note": "[C14G C41U]", "self-cleavage": 0.462}, {"variant": "GGCCGGCAUGGUCGCAGCCUCCUCGCUGGCGCCGGCUGGGCAACAUUCCGAGGGGACCGUCCUCUCGGUAAUGGCGAAUGGGACCCA", "note": "[C14G C63U]", "self-cleavage": 0.9}, {"variant": "GGCCGGCAUGGUCGCAGCCUCCUCGCUGGCGCCGGCUGGGCAACAUUCCGAGGGGACCGUCCGCUCGGUAAUGGCGAAUGGGACCCA", "note": "[C14G C63G]", "self-cleavage": 0.573}, {"variant": "GGCCGGCAUGGUCGCAGCCUCCUAGCUGGCGCCGGCUGGGCAACAUUCCGAGGGGACCGUCCCCUCGGUAAUGGCGAAUGGGACCCA", "note": "[C14G C24A]", "self-cleavage": 0.378}, {"variant": "GGCCGGCAUGGUCGCAGCCUCCUCGCUGGCGCCGGCUGGGCAAGAUUCCGAGGGGACCGUCCCCUCGGUAAUGGCGAAUGGGACCCA", "note": "[C14G C44G]", "self-cleavage": 0.196}, {"variant": "GGCCGGCAUGGUCGCAGCCUCCUCGCUGGCGCGGGCUGGGCAACAUUCCGAGGGGACCGUCCCCUCGGUAAUGGCGAAUGGGACCCA", "note": "[C14G C33G]", "self-cleavage": 0}, {"variant": "GGCCGGCAUGGUCGCAGCCUCCUCGCUGGCGCUGGCUGGGCAACAUUCCGAGGGGACCGUCCCCUCGGUAAUGGCGAAUGGGACCCA", "note": "[C14G C33U]", "self-cleavage": 0.32}, {"variant": "GGCCGGCAUGGUCGCAGCCUCCUCGCUGGCGCCGGCUGGGCAACAUUCCGAGGGGAUCGUCCCCUCGGUAAUGGCGAAUGGGACCCA", "note": "[C14G C57U]", "self-cleavage": 0.665}, {"variant": "GGCCGGCAUGGUCGCAGCCUCCUCGCUGGCGCCGGCUGGGCAACAUUCCGAGGGGAGCGUCCCCUCGGUAAUGGCGAAUGGGACCCA", "note": "[C14G C57G]", "self-cleavage": 0.782}, {"variant": "GGCCGGCAUGGUCGCAGCCUCCUCGCUGGCGCCGGCUGGGCAACAUUCCGAGGGGAACGUCCCCUCGGUAAUGGCGAAUGGGACCCA", "note": "[C14G C57A]", "self-cleavage": 0.748}, {"variant": "GGCCGGCAUGGUCGCAGCCUCCUCGCUGGCGCCGGCUGGGCAACAUUCCGAGGGGACCGUCCCCUCGGUAAUGGCGAAUGGGACGCA", "note": "[C14G C85G]", "self-cleavage": 0.415}, {"variant": "GGCCGGCAUGGUCGCAGCCUCCUCGCUGGCGCCGGCUGGGCAACAUUCCGAGGGGACCGUCCCCUCGGUAAUGGCGAAUGGGACACA", "note": "[C14G C85A]", "self-cleavage": 0.166}, {"variant": "GGCCGGCAUGGUCGCAGCCUCCUCGCUGGCGCCGGCUGGGCAACAUUCCGAGGGGACUGUCCCCUCGGUAAUGGCGAAUGGGACCCA", "note": "[C14G C58U]", "self-cleavage": 0.646}, {"variant": "GGCCGGCAUGGUCGCAGCCUCCUCGCUGGCGCCGGCUGGGCAACAUUCCGAGGGGACCGUCCCCUAGGUAAUGGCGAAUGGGACCCA", "note": "[C14G C66A]", "self-cleavage": 0.665}, {"variant": "GGCCGGCAUGGUCGCAGCCUCCUCGCUGGCGCCGGAUGGGCAACAUUCCGAGGGGACCGUCCCCUCGGUAAUGGCGAAUGGGACCCA", "note": "[C14G C36A]", "self-cleavage": 0.192}, {"variant": "GGCCGGCAUGGUCGCAGCCUUCUCGCUGGCGCCGGCUGGGCAACAUUCCGAGGGGACCGUCCCCUCGGUAAUGGCGAAUGGGACCCA", "note": "[C14G C21U]", "self-cleavage": 0.113}, {"variant": "GGCCGGCAUGGUCGCAGCCUACUCGCUGGCGCCGGCUGGGCAACAUUCCGAGGGGACCGUCCCCUCGGUAAUGGCGAAUGGGACCCA", "note": "[C14G C21A]", "self-cleavage": 0.0504}, {"variant": "GGCCGGCAUGGUCGCAGCCUCCUCGCUGGCGCCGGCUGGGCAACAUUCCGAGGGGACCGUCCCCUCGGUAAUGGCGAAUGGGAUCCA", "note": "[C14G C84U]", "self-cleavage": 0.415}, {"variant": "GGCCGGCAUGGUCGCAGCCUCCUCGCUGGCGCCGGCUGGGCAACAUUCCGAGGGGACCGUCCCUUCGGUAAUGGCGAAUGGGACCCA", "note": "[C14G C64U]", "self-cleavage": 0.516}, {"variant": "GGCCGGCAUGGUCGCAGCCUCCUCGCUGGCGCCGGCUGGGCAACAUUCCGAGGGGACCGUCCCAUCGGUAAUGGCGAAUGGGACCCA", "note": "[C14G C64A]", "self-cleavage": 0.511}, {"variant": "GGCCGGCAUGGUCGCAGCCUCCUCGCUGGAGCCGGCUGGGCAACAUUCCGAGGGGACCGUCCCCUCGGUAAUGGCGAAUGGGACCCA", "note": "[C14G C30A]", "self-cleavage": 0.0396}, {"variant": "GGCCGGCAUGGUCGCAGCGUCCUCGCUGGCGCCGGCUGGGCAACAUUCCGAGGGGACCGUCCCCUCGGUAAUGGCGAAUGGGACCCA", "note": "[C14G C19G]", "self-cleavage": 0.0449}, {"variant": "GGCCGGCAUGGUCGCAGCUUCCUCGCUGGCGCCGGCUGGGCAACAUUCCGAGGGGACCGUCCCCUCGGUAAUGGCGAAUGGGACCCA", "note": "[C14G C19U]", "self-cleavage": 0.0852}, {"variant": "GGCCGGCAUGGUCGCAGCCUCCUCGCUGGCGCCGGCUGGGCAACAUUCCGAGGGGACCGUCCCCUCGGUAAUGGCGAAUGGGACCGA", "note": "[C14G C86G]", "self-cleavage": 0.604}, {"variant": "GGCCGGCAUGGUCGCAGCCUCCUCGCUGGCGCCGGCUGGGCAACAUUCCGAGGGGACCGUCCCCUCGGUAAUGGCGAAUGGGACCAA", "note": "[C14G C86A]", "self-cleavage": 1.03}, {"variant": "GGCCGGCAUGGUCGCACCCUCCUCGCUGGCGCCGGCUGGGCAACAUUCCGAGGGGACCGUCCCCUCGGUAAUGGCGAAUGGGACCCA", "note": "[C14G G17C]", "self-cleavage": 0.0615}, {"variant": "GGCCGGCAUGGUCGCAGCCUCCUCGCUGGCGCCGGCUGGGCAACAUUCAGAGGGGACCGUCCCCUCGGUAAUGGCGAAUGGGACCCA", "note": "[C14G C49A]", "self-cleavage": 0.35}, {"variant": "GGCCGGCAUGGUCGCAGCCUCCUCGCUGGCGCCGGCUGGGCAACAUUCCGAGGGGACCGUUCCCUCGGUAAUGGCGAAUGGGACCCA", "note": "[C14G C61U]", "self-cleavage": 0.598}, {"variant": "GGCCGGCAUGGUCGCAGCCUCCUCGCUGGCGCCGGCUGGGCAACAUUGCGAGGGGACCGUCCCCUCGGUAAUGGCGAAUGGGACCCA", "note": "[C14G C48G]", "self-cleavage": 0.332}, {"variant": "GGCCGGCAUGGUCGCAGCCUCCUCGCUGGCGCCGGCUGGGCAACAUUCCGAGGGGACCGUCCCCUCGGUAAUGGGGAAUGGGACCCA", "note": "[C14G C75G]", "self-cleavage": 0.0554}, {"variant": "GGCCGGCAUGGUCGCAGCCUCCUCGCUGGCGCCGGCUGGGCAACAUUCCGAGGGGACCGUCCCCUCGGUAAUGGUGAAUGGGACCCA", "note": "[C14G C75U]", "self-cleavage": 0.155}]}]}
